± gives the uncertainty stated by the source.
Assay: amyloid nucleation score (Sup35N fusion, yeast selection) (log enrichment); library NNK1; higher = more nucleation; inactive = no reads after selection
Outline: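 Output and input plasmid inserts were sequenced by Illumina after psi-negative yeast carrying Sup35N fused to peptides of 20 random codons had been induced 24 hours with 100 μM copper sulfate and grown 7 days at 30°C on medium lacking adenine and uracil. The nucleation score is the DiMSum log enrichment of output over input reads, centred on the mode score of non-aggregating sequences. Sequences with under 100 input reads were excluded.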

Row | Substance | amyloid nucleation score
1 | WEIAE | 0.939 ± 0.19
2 | LKSPTWPMSHSDRLTHRLLC | 0.004 ± 0.69
3 | GYMFPVFSMIGFLNTNVWSK | 3.27 ± 0.15
4 | GCRPG | -0.151 ± 0.59
5 | VLCNFWMD | 2.9 ± 0.17
6 | RCRYYCNR | -0.152 ± 0.48
7 | YHKRVNFSVRAGCCC | 1.29 ± 0.43
8 | GLVHYMLLDPLAVNLSGCND | -0.301 ± 0.3
9 | IYKVEFLTCFLDEGGWSPKV | -0.692 ± 0.95
10 | RNNEDGRLKDRRRGLSHGPC | -0.763 ± 0.36
11 | SCGLYFAGVEVGGAVSLCKG | 0 ± 0.48
12 | LDVYCH | inactive
13 | GRTSCLKRGISKEASLTGS | 1.25 ± 0.53
14 | SNDCRMLWMIWKTGSACLDP | 0.271 ± 0.43
15 | WFVKLNFLCLCVNMDWHSTY | 0.352 ± 0.28
16 | DYGDYCAKWTQSYNALTVRF | 0.594 ± 0.58
17 | MRLSQRWPNSKVCDLRHSRP | 0.632 ± 0.45
18 | QRMLDTLH | -0.134 ± 1.7
19 | QLTSVSIFWYPF | -1.46 ± 2.4
20 | DSEQGRLIYICFRVTTIRAL | -0.062 ± 0.36
21 | ICELIWGGRRSNGINGSTSG | 0.741 ± 0.23
22 | IPENCSGLYWLGNYVPSIAD | -0.439 ± 0.34
23 | VKHFLSDMRLFIGPKIFMRC | 4.49 ± 0.062
24 | REIIGRLLSVRTSLAEYNSG | -0.514 ± 0.91
25 | IPRYQSGLWGCCVY | 0.489 ± 0.58

Row | Substance | amyloid nucleation score
26 | WFRVGVPHN | 0.472 ± 1.2
27 | GMSSRMPQLNSWEPRGGDSG | -0.144 ± 0.83
28 | CFWVEMFFSETHMIKNYCIV | 1.27 ± 0.61
29 | DPDHGPFQNNVWQRRPRWSH | 0.124 ± 0.47
30 | YPLVFRIMDVVSPPPHWVLF | -0.219 ± 1.2
31 | APQSRFNHEYFFENIRRVVV | inactive
32 | FVIDV | -0.568 ± 0.98
33 | RMYLGVLIRHWIDSFAFGMQ | 0.193 ± 0.32
34 | DLYFIKDSTLCTISLFLIYW | 0.324 ± 1.2
35 | EYTGSEPYLLVQVSLLNQRV | inactive
36 | SDDLFVNFSMSVWFLKVSLR | 0.515 ± 0.34
37 | SIGYMNLDRVI | -0.944 ± 0.39
38 | WYVLDDLHWIQGCNIGIVGG | inactive
39 | RTHEFQTLMEAFRSNTAVSA | -0.031 ± 0.22
40 | IENPVLRCSLYYPSRPIRRL | -0.344 ± 0.58
41 | CLFSWD | 0.118 ± 0.3
42 | SWKPVLSREDFWTNHKGRPM | 0.565 ± 0.45
43 | RIGETASYTL | -0.09 ± 0.47
44 | EVMDTLYLLLVCRYFAKCIT | inactive
45 | LVFGILHGCFEVVSGMLRVD | -0.801 ± 0.65
46 | RVGYH | -0.135 ± 0.35
47 | GGYGCDGCLSNCMRLNGVWV | inactive
48 | LVDWVYGWGVVVFAMSQGSE | 0.125 ± 1.4
49 | YCLSYEDCYWYVSVSLRYLW | -0.477 ± 0.31
50 | ELLFFYYMSSNCFVFISCSQ | 1.59 ± 0.38

Row | Substance | amyloid nucleation score
51 | VVADVAPR | -0.14 ± 0.34
52 | TRVSFYRSKFAFMFYYHVMV | 0.099 ± 0.79
53 | DTPWWGSGALVFKLCACSAY | -0.341 ± 0.59
54 | HRSSNVSGLVWSFHRMKYVI | 0.599 ± 0.79
55 | VYLGRFTPDGVMNYYNYSYV | -0.763 ± 1.4
56 | IFNSATSTCNSRYIYIK | 4.26 ± 0.074
57 | PYRPLSGRHRVLTQYGKLVG | 0.112 ± 0.81
58 | LYYNASTAIELNLEYSIKWL | 0.17 ± 0.8
59 | WVSANKSNCQMYSGTQTPCE | inactive
60 | GHHVRLLFLCVHTISYMESR | 0.582 ± 0.9
61 | VPILIVFQQVADASRIRIMR | 4.77 ± 0.059
62 | WGSSLRRTYMFYLDFDGWVN | -0.405 ± 1.7
63 | TLIRGIIISRWRRVRNIDE | -0.216 ± 0.3
64 | NGLGFLNGRSSFGVGCYY | -0.486 ± 0.28
65 | RFYMWYLVLEVLEIGKLADP | -1.04 ± 2.7
66 | YCIASSVGWFVFVIWPLRKS | 0.065 ± 0.56
67 | GIIFGMKVGWK | 0.385 ± 0.31
68 | ADFVSFSSFYFWWHVVSLDT | 0.238 ± 0.56
69 | LSYLGLLP | 0.373 ± 0.62
70 | TWIEDCSYYEMYTGPERTLT | -0.282 ± 0.46
71 | FFCRFGILFSTKGFLGFMRF | 1.01 ± 0.67
72 | ILSFSSRPVVDNHSTTW | 0.682 ± 0.51
73 | TSALWEVLW | 0.191 ± 0.58
74 | CFKGF | 0.946 ± 0.49
75 | YASGLILIKSPFV | 0.276 ± 0.34

Row | Substance | amyloid nucleation score
76 | VLFAR | 0.566 ± 0.48
77 | LGMCFENSPVNLFWAIDSQM | 1.95 ± 0.37
78 | FSHLFHQY | 2.13 ± 0.57
79 | VGEALYHESSGTVNLEILCS | inactive
80 | LRFVTINRRSVSVYSSNTKS | inactive
81 | AYNVVHSSLGTKGVRGSCAT | -0.74 ± 1.7
82 | RGSIRIKDMTCGLEIGIALR | -0.001 ± 0.44
83 | KRMVCDVCIDVMPSEFKQAG | 1.02 ± 0.76
84 | SRFDGTNIVCSSGMWFCAWK | 8.35 ± 0.045
85 | MYYSIGWKR | 1.48 ± 0.8
86 | KDLLMKV | 0.507 ± 0.64
87 | RIGTGSHLWII | -0.083 ± 0.6
88 | DGSCKLYVVFRPAVLGHGHS | 1.05 ± 0.85
89 | LWDLKIAGRLNLEGCRCGLW | 2.1 ± 0.13
90 | GEFTRGDTSKWFLLDK | 0.577 ± 0.56
91 | QFMMS | 0.052 ± 0.29
92 | TSPPSKIAVRCGWDSMSLR | 0.309 ± 0.6
93 | ALYSDRDI | 0.939 ± 0.29
94 | SKILGISKVNCGALL | -1.82 ± 1.8
95 | LACCFIVSWFNGSGSLTSRS | 7.497 ± 0.05
96 | QQLYINC | 0.199 ± 0.47
97 | LVNVCFRWNLKCYYQSSEYA | 0.518 ± 0.32
98 | LFSPMSILRFLFMYIAKVMD | 0.213 ± 0.58
99 | IRGCTAC | 0.958 ± 0.76
100 | CFVVAWCKTITV | 1.02 ± 0.66

Row | Substance | amyloid nucleation score
101 | SILCIF | 0.338 ± 1.2
102 | PMAVRLSYCCNRIYVLY | 4.47 ± 0.097
103 | NKAVKLQSDPMGALC | 0.701 ± 0.54
104 | YGRGESMLHAGGNWEWTGQE | 0.09 ± 1.1
105 | FSDFN | -0.3 ± 0.42
106 | YLINRRIYVPVYLLALVISL | -0.189 ± 0.4
107 | FDGFRGNG | 0.487 ± 0.49
108 | AWKKFSWDRLSKP | 5.16 ± 0.072
109 | AIRPSIR | -0.318 ± 0.33
110 | FCHVRTL | -0.97 ± 1.7
111 | FDIVDANKGAAPGKTVYLWR | 0.641 ± 0.93
112 | ALGYIPPRRCMTGSPPSVPR | 0.529 ± 0.84
113 | KSYSMMMSMMGNRMWVKRLV | -0.02 ± 0.5
114 | RRGSNDDSYHRRQVDRKPMA | 0.166 ± 0.66
115 | ISNLWYNCCGIRPS | 5.86 ± 0.047
116 | PVFGETGDY | -0.393 ± 0.4
117 | FGVNCNYCLILVQCMC | 2.35 ± 0.52
118 | TFLITRMCYSTVQKKEVVFW | -0.189 ± 1.2
119 | IEYFCWFAILGKPFESGIGS | 0.991 ± 0.51
120 | IVYRPLAFVAVSCSESGHSV | 4.56 ± 0.087
121 | LPKMWYIDLFVSGVY | 0.241 ± 0.48
122 | GLAASHSTSCSSYMISCWSR | -0.055 ± 0.55
123 | YIGFVGSGYLVVCVP | -2.02 ± 0.99
124 | YFPVGWLTLGISPCGVGDLF | -0.151 ± 0.43
125 | LRFRFSLANAEGLMLPVRHK | -0.216 ± 0.48

Row | Substance | amyloid nucleation score
126 | HIFVMIYVLMEDGSKKLTSM | 0.99 ± 0.85
127 | LRRIKCYTFMIAGSILVVGT | inactive
128 | MVRYKRRSLELFMIARYSCC | 0.599 ± 1.2
129 | LRTDALFY | 0.577 ± 0.69
130 | GIFDLLYWLRELSLRKA | 1.14 ± 0.39
131 | KRWYTCYVYVFRICMRVLCR | 0.731 ± 0.38
132 | KPDRQVANFRDWFG | -0.244 ± 1.2
133 | RSISSVLVSIFTKMG | 0.232 ± 0.35
134 | LTNFNAWR | 0.098 ± 0.47
135 | HCAYRFASENEMKGG | 0.321 ± 0.65
136 | LYVVSSVFLGEPVRKQVYQI | -0.678 ± 0.96
137 | MRNKKRPSRLVIGRLGNGFS | -0.079 ± 0.84
138 | SEDVLIPAGRCPL | 0.845 ± 0.7
139 | GNRSSS | inactive
140 | ETLSSFI | 0.032 ± 0.28
141 | IRTNKVFASMPYDNSDTFCS | -1.5 ± 1.9
142 | GVKLYDFVNRCCVMNLLAVK | 0.428 ± 0.47
143 | WTQPVYLAEEGLRVLDNPKA | inactive
144 | YNMVYQCLIRCVAILFNLGR | -0.321 ± 0.65
145 | AIVYRQKLISQLYFARLLRH | 0.063 ± 1.4
146 | GRLCCRPVWYTISCKLWVNE | 1.04 ± 0.49
147 | NERSSEELAPLDTQWSMLRG | -0.124 ± 0.69
148 | DSRVLSDYLSSYLSLKYLLV | -0.031 ± 0.62
149 | CRLCLRKHLSVISSSAEYLP | inactive
150 | SSKIRLFRDNTQYNGRWGSY | inactive

Row | Substance | amyloid nucleation score
151 | EARWRQSC | 0.387 ± 0.36
152 | LFSNPFRQAWH | -0.445 ± 0.71
153 | DRRFRIITHLANSLIWNKWQ | 0.076 ± 0.49
154 | AWMSRIVNNPGSNTFSRQWL | -0.284 ± 0.71
155 | VYFGDLLLKTSYL | -0.747 ± 1.1
156 | STEVGYSFCHGGMSRTVCMC | 1.45 ± 0.68
157 | DLGNLFLGISVKCI | 0.961 ± 0.53
158 | FKCRACMLYDVYIAERWVTG | -0.022 ± 0.37
159 | LGGSDYVYANSFTTIGSSGV | -0.202 ± 0.21
160 | VAEWRSMNVGVGRATIEGLS | 0.579 ± 0.28
161 | FWATRVTWLDEMLIYYCLVN | 0.155 ± 0.36
162 | ASCVKYVW | 1.31 ± 0.66
163 | CYFCYQGYMID | -0.537 ± 0.33
164 | YFRGNVNAWLLWSEICQVPF | 0.677 ± 0.88
165 | QLTLSNWLKTSAKA | 2.5 ± 0.32
166 | NSFRTGVLYSMESEGMAWWC | -0.044 ± 0.76
167 | NVDFLISQSRIFYIERLSSQ | 2.77 ± 0.16
168 | KMLSMLTDRSFWLNHWSFFQ | -0.573 ± 1.4
169 | FYTVSCLVCLGL | 8.507 ± 0.047
170 | QKCIVLVMLLGWVFGMPVIG | 0.129 ± 0.65
171 | NNFGFET | 0.671 ± 0.31
172 | ESVTWSWE | 0.505 ± 0.39
173 | LGFMTCSP | inactive
174 | KFMVNVIV | 1.24 ± 0.22
